Assay results: the supplement of paper PMC10126150
± gives the standard deviation of the averaged measurements.

Tested on: ATP
Experiment: switch fluorescence ratio, 500 uM ATP over buffer (Cy3 cluster intensity, sum of 5 cycles each) (fold (ratio)); higher = stronger signal-on switching upon ATP binding; sequences stand for … in TCGTCGGCAGCGTCAGATGTGTATAAGAGACAGTTTTTTTTTTTTTTTTTTTTTTTTT…TC
Conditions: aptamer strand: ATP DNA aptamer (quencher-CACCTGGGGGAGTATTGCGGAGGAAGG + anchor), 100 nM annealed; ATP concentration: 500 uM
Summary of the method: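 Imaging in selection buffer was followed by imaging after 15 min with 500 uM ATP at 22 °C, for Cy3-labelled switching-strand clusters annealed to 100 nM quencher-labelled ATP aptamer on a modified Illumina MiSeq flow-cell. Five of these buffer/ATP cycles ran, separated by NaOH stripping and re-annealing. The fluorescence ratio per cluster is summed target-cycle over summed buffer-cycle Cy3 intensity, averaged per switch-domain sequence; clusters outside 100-1000 RFU were removed.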
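Further: ATP exposure 15 min at 22 °C before imaging.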

Sequence	switch fluorescence ratio
GATCTTGGGT	1.11 ± 0.19
GCAAAAAAAG	0.96 ± 0.077
TATAATCGAG	1 ± 0.014
TTTTGGGTTG	1.03 ± 0.076
AAGGAGTTTG	0.969 ± 0.045
GCGGGGGGTA	1.01 ± 0.03
CGATTAGTCT	0.9951 ± 0.0021
TTTATTAATG	1.01 ± 0.026
TTCGGCCGGT	0.998 ± 0.011
TATTACACTG	1.03 ± 0.033
ACTGTTTTCT	1.05 ± 0.02
GGAGTGGGAT	1.03 ± 0.034
GAGAAGCACG	0.978 ± 0.055
CCGGGTCGGG	1.006 ± 0.0049
AATAGGTGGG	0.951 ± 0.016
GGTACTTGGA	1.04 ± 0.032
AAAAACGCTA	1.14 ± 0.026
GGGGTGAGGT	0.997 ± 0.016
AGGGCATTCG	0.979 ± 0.026
ACTGTTTGTC	0.9897 ± 0.0061
GTACTTTCGG	0.98 ± 0.015
TTTTTAAGAG	1 ± 0.014
CCCATGTATC	1.09 ± 0.011
TGCCGCCTTG	0.979 ± 0.024
CGGGACTTTT	0.982 ± 0.044
ATTCCTGGGG	1.05 ± 0.012

Sequence	switch fluorescence ratio
AAGGGAAGT	1.02 ± 0.034
TAACGGCATG	1.031 ± 0.0035
GTGCTGAATG	1.02 ± 0.016
CGGAGTATAT	1.87 ± 0.11
GTGGTAGAGC	0.991 ± 0.033
ATGCCAGGGT	0.998 ± 0.031
AACAGGCGGC	0.9872 ± 0.00069
CGTTACGTGT	1.026 ± 0.0042
TCAAAGTCCT	1.01 ± 0.02
GGGGACGGGC	1.04 ± 0.075
CCTGTAGGTA	1.009 ± 0.0069
TAAAAATTCA	1.009 ± 0.0021
AAAGGATCGG	0.9923 ± 0.0056
GGAAGAGGAG	0.983 ± 0.014
GTAACTTTTT	1.056 ± 0.0034
TATATTACGA	1.03 ± 0.013
AGATGTTGGG	0.992 ± 0.07
TAAGGTAGG	0.967 ± 0.029
AATGTTACGG	1.061 ± 0.0098
ATTTCTCAGG	1.07 ± 0.017
GCAGACGTTC	1.012 ± 0.005
ATTGGCTGGA	0.96 ± 0.076
AGGGATTTGG	0.987 ± 0.014
TGTGGTAGGT	1.01 ± 0.057
ATCGGTGTTG	1.02 ± 0.035
GCTCGTAGTG	1 ± 0.047

Sequence	switch fluorescence ratio
TAAAATTCGA	0.9784 ± 0.0059
TGTGGGGATT	1.02 ± 0.032
GTTGTACGAT	0.9971 ± 0.003
CAGGGTGTGG	0.976 ± 0.014
GGCATTAGGT	0.977 ± 0.042
CAGACCTCGT	1 ± 0.013
TGAACGACGG	1.02 ± 0.073
CGAATTCCGG	1.01 ± 0.084
AATACTGGTT	1.04 ± 0.021
ACTCTTGTTT	1.03 ± 0.014
TTCTATGGCA	0.984 ± 0.043
AAAGGCTTGG	0.992 ± 0.015
GGGACCAATT	1 ± 0.022
AGGTATGGAG	0.981 ± 0.065
TGGGGGCTGG	0.991 ± 0.013
TTTGGGGTCC	1.07 ± 0.1
GCCACGGAGT	0.964 ± 0.015
AAGAGTGGCT	1.03 ± 0.017
CGCTAGGAAA	1.006 ± 0.0076
TTTGAGGTGA	1.04 ± 0.07
AACCGCCCTT	1.27 ± 0.15
GAGGTAGCGT	1.01 ± 0.015
TTGTTTGAAA	1 ± 0.064
CAAGTCAGTA	0.991 ± 0.025
TAAGATTGTA	0.993 ± 0.032
ACCAGGGGAG	1.26 ± 0.066

Sequence	switch fluorescence ratio
AGTCTGCTGT	0.984 ± 0.037
GTGGCAGGCA	0.984 ± 0.033
GAGGAGCTAA	1.006 ± 0.0034
GGCGAGCTGG	0.9997 ± 0.0034
GACTGCATCG	1.03 ± 0.015
GGTCTCAAGA	0.993 ± 0.023
ATGTGCCAGT	0.962 ± 0.012
AGAAAAGGGA	0.995 ± 0.017
ACCATAAGGG	1 ± 0.028
TCAGTATAGC	1.018 ± 0.004
TAGGTTTTTT	0.989 ± 0.035
CGAGGGGCCC	1.01 ± 0.036
CTCGGTTCTT	0.975 ± 0.019
GGGGGTTTAT	1.01 ± 0.017
CGAGGGGTAC	1.4 ± 0.0095
ATGGTCTTAT	0.997 ± 0.014
CAGTATCGGA	0.9814 ± 0.008
CAATTGCGTA	0.981 ± 0.068
GAGGGGACAG	0.979 ± 0.035
TATGGGGGTG	1.05 ± 0.043
ACCTTAGTGC	1.1 ± 0.048
TTTAACGTAC	1.83 ± 0.15
AGGGTGACAG	0.9566 ± 0.0056
CGAAGGGTTA	0.971 ± 0.027
AATAATCAGG	0.9926 ± 0.0086
TGGAAGTCGG	0.984 ± 0.022

Sequence	switch fluorescence ratio
GCATTGAGGT	1 ± 0.013
GAAGAGGAGG	1.04 ± 0.011
TATAAGTGAG	1.02 ± 0.037
AAACAATGTG	0.972 ± 0.013
GTATAAGAGC	0.985 ± 0.033
GGACAGCGCG	1 ± 0.07
TTTAAGATAT	1.09 ± 0.074
TAAATTATTG	0.9768 ± 0.0079
GCTCAAGGAG	0.9951 ± 0.0066
CTCCAAAGCG	1.19 ± 0.032
ATTTTCTCCG	1.43 ± 0.63
AGGGTGGCTT	1.02 ± 0.088
TTTAAACTTT	1.013 ± 0.0075
ATCAGGGCAA	1.26 ± 0.18
CTGGAAAACG	1.008 ± 0.0046
GTAATGGATC	0.986 ± 0.042
CAGCTTCCCC	1.29 ± 0.42
ATAGACGTTT	0.994 ± 0.053
CCTGGGGGGA	1.02 ± 0.059
ACGGGGTTGG	1.03 ± 0.024
TATTGGATGC	0.97 ± 0.032
TGGGTCTACT	0.9761 ± 0.0084
CCGGGTAATG	1.27 ± 0.028
ATATTGGGAG	0.99 ± 0.025
GATAGTGTCG	1.04 ± 0.045
TGCCATCCTA	0.9913 ± 0.005

Sequence	switch fluorescence ratio
CTGTCGACTG	1.04 ± 0.017
GGAACGTGGT	0.971 ± 0.017
TCTTTAATGG	1.01 ± 0.042
ATAAATTGCA	0.998 ± 0.02
GGGTTATTTG	1.01 ± 0.045
CGTTGCAGT	0.986 ± 0.011
TGATGTACGT	1 ± 0.011
GAGTATTAAT	1.01 ± 0.02
GATGAAAAAG	1.033 ± 0.0093
CTTGTGGCGT	1 ± 0.049
ATGATCTCGT	0.968 ± 0.032
AGTGGGATGG	1.03 ± 0.037
AACGTTATGC	1.13 ± 0.069
AGCGTGATAC	4.4 ± 0.36
CAAAACCTGA	1.2 ± 0.15
TGGTTGCAGG	1.05 ± 0.042
TTTCGGGCAG	1.02 ± 0.037
GGGGAAATGG	1.01 ± 0.025
GGTTTTTGGA	0.981 ± 0.038
TACGTAGGGT	1.19 ± 0.28
TTAATTGAGT	1.012 ± 0.0018
TACGTGTTTT	1 ± 0.0081
ATGTTATTG	0.973 ± 0.031
